Measurements: PMC6133988, “Characterization of Arabidopsis thaliana Hydroxyphenylpyruvate Reductases in the Tyrosine Conversion Pathway” (Frontiers in Plant Science, 2018)

What was measured:
Experiment in all cases: LC-MRM-MS product quantification, non-linear regression
Format in all cases: biochemical, Arabidopsis thaliana
[1] = substrate: O=C(O)C(=O)CO; settings: NADH (2 mM), 100 mM potassium phosphate pH 7.0, 4 mM DTT, 40 μM ascorbate, 30 °C
Text: LC-MRM-MS product quantification, non-linear regression on HPR1

[2] = substrate: O=C(O)C(=O)Cc1ccc(O)cc1; settings: NADPH (2 mM), 100 mM potassium phosphate pH 7.0, 4 mM DTT, 40 μM ascorbate, 30 °C
Text: (§1) LC-MRM-MS product quantification, non-linear regression on HPPR2

[3] = substrate: O=C(O)C(=O)CO; settings: NADPH (2 mM), 100 mM potassium phosphate pH 7.0, 4 mM DTT, 40 μM ascorbate, 30 °C
Text: as §1

[4] = substrate: O=C(O)C(=O)Cc1ccccc1; settings: NADPH (2 mM), 100 mM potassium phosphate pH 7.0, 4 mM DTT, 40 μM ascorbate, 30 °C
Text: as §1

[5] = substrate: O=C(O)C(=O)Cc1ccc(O)cc1; settings: NADPH (2 mM), 100 mM potassium phosphate pH 7.0, 4 mM DTT, 40 μM ascorbate, 30 °C; remark: listed apart in the source
Text: (§2) LC-MRM-MS product quantification, non-linear regression on HPPR3

[6] = substrate: O=C(O)C(=O)CO; settings: NADPH (2 mM), 100 mM potassium phosphate pH 7.0, 4 mM DTT, 40 μM ascorbate, 30 °C; remark: listed apart in the source
Text: as §2

[7] = substrate: O=C(O)C(=O)Cc1ccccc1; settings: NADPH (2 mM), 100 mM potassium phosphate pH 7.0, 4 mM DTT, 40 μM ascorbate, 30 °C; remark: listed apart in the source
Text: as §2

B1: HPR1 (Arabidopsis thaliana) (protein)
chain: MAKPVSIEVYNPNGKYRVVSTKPMPGTRWINLLVDQGCRVEICHLKKTILSVEDIIDLIGDKCDGVIGQLTEDWGETLFSALSKAGGKAFSNMAVGYNNVDVEAANKYGIAVGNTPGVLTETTAELAASLSLAAARRIVEADEFMRGGLYEGWLPHLFVGNLLKGQTVGVIGAGRIGSAYARMMVEGFKMNLIYFDLYQSTRLEKFVTAYGQFLKANGEQPVTWKRASSMEEVLREADLISLHPVLDKTTYHLVNKERLAMMKKEAILVNCSRGPVIDEAALVEHLKENPMFRVGLDVFEEEPFMKPGLADTKNAIVVPHIASASKWTREGMATLAALNVLGRVKGYPIWHDPNRVDPFLNENASPPNASPSIVNSKALGLPVSKL
notes: coding region from Arabidopsis cDNA in pDEST17, His-tagged, E. coli, Ni-NTA purified
- Km [1]: 1530 ± 720 µM
- kcat [1]: 3.46 ± 0.0838 s⁻¹
- kcat/Km [1]: 2570 ± 1040 M⁻¹ s⁻¹

B2: HPPR2 (Arabidopsis thaliana) (protein)
chain: MESIGVLMMCPMSSYLENELEKRFNLLRFWTSPEKSVLLETHRNSIRAVVGNASAGADAQLISDLPNLEIVSSFSVGLDKIDLGKCKEKGIRVTNTPDVLTEDVADLAIGLILALLRRLCECDRYVRSGKWKQGEFQLTTKFSGKSVGIIGLGRIGTAIAKRAEAFSCPINYYSRTIKPDVAYKYYPTVVDLAQNSDILVVACPLTEQTRHIVDRQVMDALGAKGVLINIGRGPHVDEQELIKALTEGRLGGAALDVFEQEPHVPEELFGLENVVLLPHVGSGTVETRNAMADLVVGNLEAHFSGKSLLTPVV
notes: as for B1
- Km [2]: 800 ± 160 µM
- kcat [2]: 0.122 ± 0.0085 s⁻¹
- kcat/Km [2]: 157 ± 36.3 M⁻¹ s⁻¹
- Km [3]: 1050 ± 390 µM
- kcat [3]: 0.926 ± 0.0788 s⁻¹
- kcat/Km [3]: 950 ± 296 M⁻¹ s⁻¹
- Km [4]: 3700 ± 750 µM
- kcat [4]: 0.0333 ± 0.00983 s⁻¹
- kcat/Km [4]: 9 ± 1.17 M⁻¹ s⁻¹

B3: HPPR3 (Arabidopsis thaliana) (protein)
chain: MAESSEPPVVLLHRPPSLTFMDEILTREFRTLITDTSSSESLPSFFPRHASSARAFVISGRLPVTDELLSHLPSLQILVCTSVGIDHIDLAACKRRGIVITNAGNAFSDDVADCAVGLLISVLRRIPAADRYVRSGNWAKFGDFQLGSKVSGKRVGIVGLGSIGSFVAKRLESFGCVISYNSRSQKQSSPYRYYSDILSLAENNDVLVLCCSLTDETHHIVNREVMELLGKDGVVINVGRGKLIDEKEMVKCLVDGVIGGAGLDVFENEPAVPQELFGLDNVVLSPHFAVATPGSLDNVAQIALANLKAFFSNRPLLSPVQLD
notes: as for B1
- Km [5]: 370 ± 60 µM
- kcat [5]: 0.285 ± 0.0158 s⁻¹
- kcat/Km [5]: 785 ± 87.3 M⁻¹ s⁻¹
- Km [6]: 3570 ± 480 µM
- kcat [6]: 0.0518 ± 0.0035 s⁻¹
- kcat/Km [6]: 14.8 ± 2.83 M⁻¹ s⁻¹
- Km [7]: 1520 ± 50 µM
- kcat [7]: 0.611 ± 0.0692 s⁻¹
- kcat/Km [7]: 402 ± 49.2 M⁻¹ s⁻¹
